From article PMC11661604 (2024) come the findings set out here.

In test [1] the target is T1, native Semliki Forest virus (SFV) virion (Semliki Forest virus). Put plainly: SPR.
The target of test [2] is T1, native Semliki Forest virus (SFV) virion. Put plainly: SPR. The source holds these as a separate data set.

Read-outs that look alike come from different tables or passages of the source.

B1: LA1-3-Fc (Fc fusion)
chain: not shown
Turning to B1, binding in test [1] was characterised by a dissociation constant (Kd) of 523 nM.

Consider MRTCRIHEISCGAHSTQCIPVSWRCDGENDCDSGEDEENCGNI (Fc fusion) [LA3-Fc], for which the Kd was found to be 1020 nM in test [1] and 1170 nM in test [2]. As for MRTCRIHEISCGAHSTACIPVSWRCDGENDCDSGEDEENCGNI (Fc fusion) [LA3-Fc Q126A], the Kd in test [2] is 11700 nM.

In test [2], MRTCAIHEISCGAHSTQCIPVSWRCDGENDCDSGEDEENCGNI (Fc fusion) [LA3-Fc R114A] showed a Kd of 1580 nM.
